According to article PMC8291497 (ACS Chemical Biology, 2021):
Where a SMILES comes first, the peptide text is derived from it. Where no end group is shown, it is not given here. [ ]: non-standard residue; d: D form. The star is where a group is joined. Dansyl = CN(C)c1cccc2c(S(=O)(=O)*)cccc12; PhLac = O=C(O)[C@@H](O)Cc1ccccc1

Legend:
[1] = target: T1, PARM-pWT (364-570; R455K, C483A, C501A, Y524W, C566A) (Homo sapiens, UniProt Q99767, C483A/C501A/C566A/R455K/Y524W); assay: Stopped flow binding kinetics, APP A-to-E variants to PARM-pWT
T1 construct: made in house; host or cells: semisynthesis, three-segment approach (expressed fragments plus synthetic segment)
T1 sequence (Q99767 364-570 R455K/C483A/C501A/Y524W/C566A): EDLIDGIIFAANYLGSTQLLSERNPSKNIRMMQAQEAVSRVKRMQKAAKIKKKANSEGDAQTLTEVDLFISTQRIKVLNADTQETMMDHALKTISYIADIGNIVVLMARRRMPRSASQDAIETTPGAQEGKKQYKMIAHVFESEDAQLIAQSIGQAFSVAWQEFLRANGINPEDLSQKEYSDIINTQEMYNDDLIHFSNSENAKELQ
Procedure: (§1) Kinetic binding rate constants were obtained using an upgraded SX17 stopped flow spectrometer (Applied Photophysics), and all experiments were conducted at 25 °C in 500 mM NaCl and 25 mM HEPES (pH 7.4). The relatively high NaCl concentration was used to improve the solubility of the proteins. The change in tryptophan fluorescence was measured using a band-pass filter (excitation at 280 nm and emission at 330 ± 30 nm) when mixing varying concentrations (2–50 μM) of the dansyl peptides with 1 μM protein or 0.5 μM semisynthetic proteins. […] For PTB variants, we used the kobs value from the fast kinetic phase for the analysis. […] We report the errors in kon and koff from the curve fitting. […] For these koff determinations, we report the standard error of the mean of three replicates. Φ values were defined as ΔΔGTS/ΔΔGeq, where ΔΔGTS = RT ln(kon^WT/kon^mut.) and ΔΔGeq = RT ln(Kd^mut./Keq^WT). Calculated coupling free energies were defined as ΔΔΔGEq = RT ln(Kd^mut.:WTKd^WT:mut./Kd^WT:WTKd^mut.:mut.) or ΔΔΔGTS = RT ln(kon^WT:WTkon^mut.:mut./kon^mut.:WTkon^WT:mut.) as previously described.[27] Propagated errors are reported.

[2] = target: T2, Mint2 PTB 364-538 (without the ARM linker) (Homo sapiens, UniProt Q99767, Y524W); assay: Stopped flow binding kinetics, APP peptides to PTB
T2 construct: made in house; host or cells: Escherichia coli BL21(DE3)pLysS
T2 sequence (Q99767 364-538 Y524W): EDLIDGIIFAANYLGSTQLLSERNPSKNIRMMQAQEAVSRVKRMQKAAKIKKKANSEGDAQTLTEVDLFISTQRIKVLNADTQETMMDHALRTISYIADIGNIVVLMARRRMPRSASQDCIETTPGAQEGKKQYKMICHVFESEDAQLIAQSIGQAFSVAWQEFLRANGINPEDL
Procedure: as §1

[3] = target: T3, Mint2 PARM 364-570 (Y524W, Y543A) (Homo sapiens, UniProt Q99767, Y524W/Y543A); assay: Stopped flow binding kinetics, APP peptides to PARM^Y543A; design: made in house; host or cells: Escherichia coli BL21(DE3)pLysS
T3 sequence (Q99767 364-570 Y524W/Y543A): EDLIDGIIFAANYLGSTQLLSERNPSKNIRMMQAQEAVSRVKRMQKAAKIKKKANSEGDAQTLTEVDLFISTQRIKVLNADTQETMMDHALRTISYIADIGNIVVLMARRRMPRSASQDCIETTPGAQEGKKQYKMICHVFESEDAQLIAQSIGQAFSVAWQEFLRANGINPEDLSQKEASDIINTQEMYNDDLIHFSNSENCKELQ
Procedure: as §1

[4] = target: Mint2 PTB 364-538 (Homo sapiens, UniProt Q99767, Y524W); assay: biochemical
[5] = target: T3, Mint2 PARM 364-570 (Y524W, Y543A); assay: biochemical
[6] = target: T4, Mint2 PARM 364-570 (Y524W, Y543E) (Homo sapiens, UniProt Q99767, Y524W/Y543E); assay: biochemical
T4 sequence (Q99767 364-570 Y524W/Y543E): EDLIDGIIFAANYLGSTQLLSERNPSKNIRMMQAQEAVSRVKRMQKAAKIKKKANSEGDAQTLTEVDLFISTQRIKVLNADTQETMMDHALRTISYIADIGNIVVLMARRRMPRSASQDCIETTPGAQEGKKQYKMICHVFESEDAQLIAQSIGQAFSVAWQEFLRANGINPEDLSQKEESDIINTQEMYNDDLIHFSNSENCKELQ

[7] = target: Mint2 PARMWT 364-570 (Homo sapiens, UniProt Q99767); assay: biochemical
Chain of Mint2 PARMWT 364-570 (Q99767 364-570): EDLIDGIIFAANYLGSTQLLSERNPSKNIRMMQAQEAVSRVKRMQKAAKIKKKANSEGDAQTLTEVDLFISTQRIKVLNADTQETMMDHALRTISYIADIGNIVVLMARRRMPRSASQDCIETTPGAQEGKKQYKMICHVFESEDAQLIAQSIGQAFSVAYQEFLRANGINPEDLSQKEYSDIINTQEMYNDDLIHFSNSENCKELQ

[8] = target: T5, Mint2 PARM 364-570 (Y524W), pWT PARM (PTB domain and ARM linker) (Homo sapiens, UniProt Q99767, Y524W); assay: Stopped flow binding kinetics, APP peptides to PARM (pseudo-wild type)
T5 construct: made in house; host or cells: Escherichia coli BL21(DE3)pLysS
T5 sequence (Q99767 364-570 Y524W): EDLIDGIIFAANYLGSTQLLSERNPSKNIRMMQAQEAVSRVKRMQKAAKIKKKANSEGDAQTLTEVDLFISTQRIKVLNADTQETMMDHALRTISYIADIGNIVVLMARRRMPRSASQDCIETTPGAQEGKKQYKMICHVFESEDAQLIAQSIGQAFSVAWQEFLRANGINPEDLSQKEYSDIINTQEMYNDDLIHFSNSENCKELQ
Procedure: as §1

[9] = target: pseudo-wild type (pWT) PARM domain of Mint2 (residues 364-570, Y524W) (human, UniProt Q99767 364-570, Y524W); assay: stopped-flow fluorescence kinetics; settings: both partners purified
[10] = target: PARM^Y543E (human, UniProt Q99767 364-570, Y524W | Y543E); assay: stopped-flow fluorescence kinetics; settings: both partners purified
[11] = target: PARM^Y543A (human, UniProt Q99767 364-570, Y524W | Y543A); assay: stopped-flow fluorescence kinetics; settings: both partners purified
[12] = target: PTB without the ARM linker (Mint2 residues 364-538) (human, UniProt Q99767 364-538, Y524W); assay: stopped-flow fluorescence kinetics; settings: both partners purified

For `C[C@@H](O)[C@H](NC(=O)[C@@H]1CCCN1C(=O)[C@H](CC(N)=O)NC(=O)[C@H](CCC(=O)O)NC(=O)[C@H](Cc1ccc(O)cc1)NC(=O)CNC(=O)[C@H](CC(N)=O)NC(=O)CNC(=O)[C@H](CC(N)=O)NC(=O)[C@H](CC(N)=O)NS(=O)(=O)c1cccc2c(N(C)C)cccc12)C(=O)N[C@@H](Cc1ccc(O)cc1)C(=O)N[C@@H](CCCCN)C(=O)N[C@@H](Cc1ccccc1)C(=O)O[C@@H](Cc1ccccc1)C(=O)N[C@@H](CCC(=O)O)C(=O)O` [Peptide F765φ] (Dansyl-NNGNGYENPTYKF[PhLac]E-OH; N-terminus and C-terminus assumed), the Kd [1] was 40 ± 9 µM, the koff [1] was 27 s⁻¹ and the “F (Φ value, ΔΔGTS/ΔΔGeq)” value ([1]; APP A-to-E variant vs Dansyl-APPWT) was about 0. The kon ([1]; pH 7.4) was 690000 M⁻¹ s⁻¹.

“Dansyl-NNG-NGψENPTYKFFE [Peptide Y757ψ, dansyl-APP peptide with amide-to-ester backbone modification at Y757]” was tested, and the “kinetic transient in the stopped flow experiment” value ([1]; most likely due to a kobs outside the range of the instrument (>300 s^–1)) was “did not give a kinetic transient”.

`C[C@@H](O)[C@H](NC(=O)[C@@H]1CCCN1C(=O)[C@H](CC(N)=O)NC(=O)[C@H](CCC(=O)O)NC(=O)[C@H](Cc1ccccc1)NC(=O)CNC(=O)[C@H](CC(N)=O)NC(=O)CNC(=O)[C@H](CC(N)=O)NC(=O)[C@H](CC(N)=O)NS(=O)(=O)c1cccc2c(N(C)C)cccc12)C(=O)N[C@@H](Cc1ccc(O)cc1)C(=O)N[C@@H](CCCCN)C(=O)N[C@@H](Cc1ccccc1)C(=O)N[C@@H](Cc1ccccc1)C(=O)N[C@@H](CCC(=O)O)C(=O)O` [Peptide Y757F] showed a Kd [2] of 0.6 µM.

Molecule `C[C@@H](O)[C@H](NC(=O)[C@@H]1CCCN1C(=O)[C@H](CC(N)=O)NC(=O)[C@H](CCC(=O)O)NC(=O)[C@H](Cc1ccc(O)cc1)NC(=O)CNC(=O)[C@H](CC(N)=O)NC(=O)CNC(=O)[C@H](CC(N)=O)NC(=O)[C@H](CC(N)=O)NS(=O)(=O)c1cccc2c(N(C)C)cccc12)C(=O)N[C@@H](Cc1ccc(O)cc1)C(=O)NCC(=O)N[C@@H](Cc1ccccc1)C(=O)N[C@@H](Cc1ccccc1)C(=O)N[C@@H](CCC(=O)O)C(=O)O` [Peptide K763G] has a Kd [3] of 10 ± 0.3 µM.

`C[C@H](NC(=O)[C@H](Cc1ccc(O)cc1)NC(=O)[C@@H](NC(=O)[C@@H]1CCCN1C(=O)[C@H](CC(N)=O)NC(=O)[C@H](CCC(=O)O)NC(=O)[C@H](Cc1ccc(O)cc1)NC(=O)CNC(=O)[C@H](CC(N)=O)NC(=O)CNC(=O)[C@H](CC(N)=O)NC(=O)[C@H](CC(N)=O)NS(=O)(=O)c1cccc2c(N(C)C)cccc12)[C@@H](C)O)C(=O)N[C@@H](Cc1ccccc1)C(=O)N[C@@H](Cc1ccccc1)C(=O)N[C@@H](CCC(=O)O)C(=O)O` [Peptide K763A] showed a Ki [4] of 0.8 µM.

For NGYENPTYKFFE [APPWT (12-mer)], the Ki [5] was 1.1 µM, the Ki [6] was 1.1 µM and the Ki [7] was 3.2 µM.

For `C[C@@H](O)[C@H](NC(=O)[C@@H]1CCCN1C(=O)[C@H](CC(N)=O)NC(=O)[C@H](CCC(=O)O)NC(=O)[C@H](Cc1ccc(O)cc1)NC(=O)CNC(=O)[C@H](CC(N)=O)NC(=O)CNC(=O)[C@H](CC(N)=O)NC(=O)[C@H](CC(N)=O)NS(=O)(=O)c1cccc2c(N(C)C)cccc12)C(=O)N[C@@H](Cc1ccccc1)C(=O)N[C@@H](CCCCN)C(=O)N[C@@H](Cc1ccccc1)C(=O)N[C@@H](Cc1ccccc1)C(=O)N[C@@H](CCC(=O)O)C(=O)O` [Peptide Y762F], the Kd [8] was 4 µM.

Dansyl-NGYENPTYKAFE [dansyl-APP F764A]: binds [9]; binds [10]; binds [11]. Dansyl-NGYENPTYKAFE [dansyl-APP F764A]: binds [12].

Dansyl-NGYENATYKFFE [dansyl-APP P760A]: binds [9]; binds [10]; binds [11]. Dansyl-NGYENATYKFFE [dansyl-APP P760A]: binds [12].

Dansyl-NGFENPTYKFFE [dansyl-APP Y757F]: binds [9]; binds [10]; binds [11]. Dansyl-NGFENPTYKFFE [dansyl-APP Y757F]: binds [12].

Dansyl-NGYENPTFKFFE [dansyl-APP Y762F]: binds [9]; binds [10]; binds [11]. Dansyl-NGYENPTFKFFE [dansyl-APP Y762F]: binds [12].

Dansyl-NGYENPTYKFGE [dansyl-APP F765G]: binds [9]; binds [10]; binds [11]. Dansyl-NGYENPTYKFGE [dansyl-APP F765G]: binds [12].

Dansyl-NGYENPTYKGFE [dansyl-APP F764G]: binds [9]; binds [10]; binds [11]. Dansyl-NGYENPTYKGFE [dansyl-APP F764G]: binds [12].

Dansyl-NGYENPTYGFFE [dansyl-APP K763G]: binds [9]; binds [10]; binds [11]. Dansyl-NGYENPTYGFFE [dansyl-APP K763G]: binds [12].

Dansyl-NGYENPTYAFFE [dansyl-APP K763A]: binds [9]; binds [10]; binds [11]. Dansyl-NGYENPTYAFFE [dansyl-APP K763A]: binds [12].

Dansyl-NGYENGTYKFFE [dansyl-APP P760G]: binds [9]; binds [10]; binds [11]. Dansyl-NGYENGTYKFFE [dansyl-APP P760G]: binds [12].

Dansyl-NGYENPTYKFAE [dansyl-APP F765A]: binds [9]; binds [10]; binds [11]. Dansyl-NGYENPTYKFAE [dansyl-APP F765A]: binds [12].
